In PMC11417369, “DNA sequence and chromatin differentiate sequence-specific transcription factor binding in the human malaria parasite Plasmodium falciparum” one finds binding signal data, which are given here for 41 molecules.

Sequences and labels used below:
T1: AP2-HC D1 (Plasmodium falciparum, UniProt Q8IKR9 1316-1374)
T1 sequence: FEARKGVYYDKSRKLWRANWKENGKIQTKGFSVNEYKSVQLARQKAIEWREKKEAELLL

B1: CACACA_site3497 (dsDNA)
DNA 1: AGCAAATACAAACACACACACACATATACATATATA
DNA 2: TATATATGTATATGTGTGTGTGTGTTTGTATTTGCT
B2: CACACA_site4573 (dsDNA)
DNA 1: TATGCAAGGAACCACACACACACACCGAAATGTATA
DNA 2: TATACATTTCGGTGTGTGTGTGTGGTTCCTTGCATA
B3: CACACA_site482 (dsDNA)
DNA 1: GAATAATCCAAACACACACACACACCCGAATAAATA
DNA 2: TATTTATTCGGGTGTGTGTGTGTGTTTGGATTATTC
B4: CACACA_site118 (dsDNA)
DNA 1: ATATATATATATTACACACACACAAAAAAAATAAAG
DNA 2: CTTTATTTTTTTTGTGTGTGTGTAATATATATATAT
B5: CACACA_site270 (dsDNA)
DNA 1: AATACTTATTATGAAACACACACCAAAACTACATAA
DNA 2: TTATGTAGTTTTGGTGTGTGTTTCATAATAAGTATT
B6: CACACA_site4398 (dsDNA)
DNA 1: AGTATACTCAAACACACACACACAAAAAAAAAAAAA
DNA 2: TTTTTTTTTTTTTGTGTGTGTGTGTTTGAGTATACT
B7: CACACA_site5780 (dsDNA)
DNA 1: ATAAATTAAAAACACACACACATCTGGATACCCCTA
DNA 2: TAGGGGTATCCAGATGTGTGTGTGTTTTTAATTTAT
B8: CACACA_site7567 (dsDNA)
DNA 1: TGCAACAAAATAAACACACACACACTAACACAAAAA
DNA 2: TTTTTGTGTTAGTGTGTGTGTGTTTATTTTGTTGCA
B9: CACACA_site2860 (dsDNA)
DNA 1: AAAAAAAAAAAAAACACACACACACCCATACACATA
DNA 2: TATGTGTATGGGTGTGTGTGTGTTTTTTTTTTTTTT
B10: CACACA_site3056 (dsDNA)
DNA 1: AGCTCTTGTCATTTTGCACACACACCCGTATAGGTT
DNA 2: AACCTATACGGGTGTGTGTGCAAAATGACAAGAGCT
B11: CACACA_site758 (dsDNA)
DNA 1: TTAAACTTGAAACACACACACACACCCATATAAAAA
DNA 2: TTTTTATATGGGTGTGTGTGTGTGTTTCAAGTTTAA
B12: CACACA_site3306 (dsDNA)
DNA 1: CAACATTTGAAACACACACACATACAAACAAACAAA
DNA 2: TTTGTTTGTTTGTATGTGTGTGTGTTTCAAATGTTG
B13: CACACA_site1585 (dsDNA)
DNA 1: AAAATAAAAAAAAACACACACATACAAGCATATATA
DNA 2: TATATATGCTTGTATGTGTGTGTTTTTTTTTATTTT
B14: CACACA_site4006 (dsDNA)
DNA 1: ATAAGGAAGGGATGCACACAAAAGGGTACATAAGAA
DNA 2: TTCTTATGTACCCTTTTGTGTGCATCCCTTCCTTAT
B15: CACACA_site1447 (dsDNA)
DNA 1: AAAAAAAAAAAACACACACACACACCCACAAAATAT
DNA 2: ATATTTTGTGGGTGTGTGTGTGTGTTTTTTTTTTTT
B16: CACACA_site6216 (dsDNA)
DNA 1: AAAAAAAAAAGACACACACACACACGGAGATATATA
DNA 2: TATATATCTCCGTGTGTGTGTGTGTCTTTTTTTTTT
B17: CACACA_site4465 (dsDNA)
DNA 1: AAATAATATAAATACACACACACATATATAAATACA
DNA 2: TGTATTTATATATGTGTGTGTGTATTTATATTATTT
B18: CACACA_site2432 (dsDNA)
DNA 1: CAAACCCACCAACACACACACACAAAAATGATTAAA
DNA 2: TTTAATCATTTTTGTGTGTGTGTGTTGGTGGGTTTG
B19: CACACA_site6301 (dsDNA)
DNA 1: CACACGCACAGACACACACACACACGGATATAAATA
DNA 2: TATTTATATCCGTGTGTGTGTGTGTCTGTGCGTGTG
B20: CACACA_site8023 (dsDNA)
DNA 1: CCTGAACACATACATACACACACACTAATAAAAAAA
DNA 2: TTTTTTTATTAGTGTGTGTGTATGTATGTGTTCAGG
B21: CACACA_site5428 (dsDNA)
DNA 1: AAAAGATAATTATGCACACACACACCCAGACACAAC
DNA 2: GTTGTGTCTGGGTGTGTGTGTGCATAATTATCTTTT
B22: CACACA_site1963 (dsDNA)
DNA 1: AACTTGTATATATACACACACACACTGTCTTTTTTT
DNA 2: AAAAAAAGACAGTGTGTGTGTGTATATATACAAGTT
B23: CACACA_site7641 (dsDNA)
DNA 1: TACATACACAGACACACACACATATAAATATAAATA
DNA 2: TATTTATATTTATATGTGTGTGTGTCTGTGTATGTA
B24: CACACA_site6373 (dsDNA)
DNA 1: AACATACATAGACACACACACACACGCACACGCACA
DNA 2: TGTGCGTGTGCGTGTGTGTGTGTGTCTATGTATGTT
B25: CACACA_site336 (dsDNA)
DNA 1: GGAGCACCCAGACACACACACACATATATATATATA
DNA 2: TATATATATATATGTGTGTGTGTGTCTGGGTGCTCC
B26: CACACA_site8770 (dsDNA)
DNA 1: AACAAACACAGACACACACACACACTAATATGATTA
DNA 2: TAATCATATTAGTGTGTGTGTGTGTCTGTGTTTGTT
B27: CACACA_site8328 (dsDNA)
DNA 1: TTGGGTCAAACATAAACACACACAAAAAGAAAAAAT
DNA 2: ATTTTTTCTTTTTGTGTGTGTTTATGTTTGACCCAA
B28: CACACA_site1505 (dsDNA)
DNA 1: TATATATATATATACACACACACAAAAAAAAAAAAA
DNA 2: TTTTTTTTTTTTTGTGTGTGTGTATATATATATATA
B29: CACACA_site8795 (dsDNA)
DNA 1: CTTATATATTGCCCTTCACACACACCCATATATATA
DNA 2: TATATATATGGGTGTGTGTGAAGGGCAATATATAAG
B30: CACACA_site4891 (dsDNA)
DNA 1: TAATAAATAGGACACACACACATATATATATATTAT
DNA 2: ATAATATATATATATGTGTGTGTGTCCTATTTATTA
B31: CACACA_site498 (dsDNA)
DNA 1: TACACCCACCAACACACACACACACCCAAAAAAAAA
DNA 2: TTTTTTTTTGGGTGTGTGTGTGTGTTGGTGGGTGTA
B32: CACACA_site8823 (dsDNA)
DNA 1: TAATTATGCCAACACACACACACACCCAACTAAAAA
DNA 2: TTTTTAGTTGGGTGTGTGTGTGTGTTGGCATAATTA
B33: CACACA_site4316 (dsDNA)
DNA 1: TGAATAAATCAAAGCACACATACACAGACATATATA
DNA 2: TATATATGTCTGTGTATGTGTGCTTTGATTTATTCA
B34: CACACA_site7791 (dsDNA)
DNA 1: AAAATTAACCGTAACACACACACATATAAATATGTA
DNA 2: TACATATTTATATGTGTGTGTGTTACGGTTAATTTT
B35: CACACA_site6334 (dsDNA)
DNA 1: AAAAAAAAAAGACACACACACAAATACAAATACATA
DNA 2: TATGTATTTGTATTTGTGTGTGTGTCTTTTTTTTTT
B36: CACACA_site8113 (dsDNA)
DNA 1: CACGCATACAGACACACACACACACCGATATATATA
DNA 2: TATATATATCGGTGTGTGTGTGTGTCTGTATGCGTG
B37: CACACA_site1725 (dsDNA)
DNA 1: CATATATACGCATACACACACACACCCACACCCACA
DNA 2: TGTGGGTGTGGGTGTGTGTGTGTATGCGTATATATG
B38: CACACA_site8256 (dsDNA)
DNA 1: AAATAAAGCACACCGACACACACATATATATATATA
DNA 2: TATATATATATATGTGTGTGTCGGTGTGCTTTATTT
B39: CACACA_site2857 (dsDNA)
DNA 1: AAAAAAAACAGACACACACACATACACATACATACA
DNA 2: TGTATGTATGTGTATGTGTGTGTGTCTGTTTTTTTT
B40: CACACA_site803 (dsDNA)
DNA 1: AAAAAAAACAAATACACACGCACACCGAAAAAAAAA
DNA 2: TTTTTTTTTCGGTGTGCGTGTGTATTTGTTTTTTTT
B41: CACACA_site7659 (dsDNA)
DNA 1: AGAATAAAAAGGAACACACACACACGCATATAAATA
DNA 2: TATTTATATGCGTGTGTGTGTGTTCCTTTTTATTCT

The data set concerns the target T1, AP2-HC D1. The data set can be described thus: gcPBM; about 25 ug protein; PBS, 1% milk, 0.2 mg/ml BSA, salmon testes DNA, 0.03% Triton X-100. The following applies: tags: N-terminal GST (pGEX-4T-1), kept; label: surface-attached array probe.
B1: the binding signal is 11.7 ln median PBM intensity, better of two orientations.

On to B2, for which the binding signal was 10.6 ln median PBM intensity, better of two orientations.

Regarding B3, the binding signal is 11.7 ln median PBM intensity, better of two orientations.

Regarding B4, the binding signal is 11.7 ln median PBM intensity, better of two orientations.

As for B5, the binding signal was 10.7 ln median PBM intensity, better of two orientations.

On to B6, for which the binding signal was 11.8 ln median PBM intensity, better of two orientations.

With B7, the binding signal is 11.5 ln median PBM intensity, better of two orientations.

In the case of B8, the binding signal was 10.5 ln median PBM intensity, better of two orientations.

B9: the binding signal is 11.7 ln median PBM intensity, better of two orientations.

As for B10, the binding signal was 11 ln median PBM intensity, better of two orientations.

For the molecule B11, the binding signal was 11.7 ln median PBM intensity, better of two orientations.

Turning to B12, the binding signal is 11.8 ln median PBM intensity, better of two orientations.

Take B13: the binding signal was 11.2 ln median PBM intensity, better of two orientations.

For B14, the binding signal is 10.5 ln median PBM intensity, better of two orientations.

B15: the binding signal is 11.7 ln median PBM intensity, better of two orientations.

Consider B16, for which the binding signal was 11.7 ln median PBM intensity, better of two orientations.

As to B17, the binding signal was 11.7 ln median PBM intensity, better of two orientations.

In the case of B18, the binding signal was 10.5 ln median PBM intensity, better of two orientations.

In the case of B19, the binding signal was 11.7 ln median PBM intensity, better of two orientations.

As to B20, the binding signal is 11.3 ln median PBM intensity, better of two orientations.

For the molecule B21, the binding signal was 11.7 ln median PBM intensity, better of two orientations.

With B22, the binding signal was 10.5 ln median PBM intensity, better of two orientations.

As for B23, the binding signal was 10.4 ln median PBM intensity, better of two orientations.

For B24, the binding signal is 11 ln median PBM intensity, better of two orientations.

In the case of B25, the binding signal was 10.6 ln median PBM intensity, better of two orientations.

Turning to B26, the binding signal was 11.7 ln median PBM intensity, better of two orientations.

Consider B27, for which the binding signal was 10.7 ln median PBM intensity, better of two orientations.

On to B28, for which the binding signal is 11.3 ln median PBM intensity, better of two orientations.

For B29, the binding signal was 10.6 ln median PBM intensity, better of two orientations.

With B30, the binding signal is 10.5 ln median PBM intensity, better of two orientations.

Regarding B31, the binding signal is 10.5 ln median PBM intensity, better of two orientations.

B32: the binding signal is 10.8 ln median PBM intensity, better of two orientations.

B33: the binding signal was 10.4 ln median PBM intensity, better of two orientations.

For B34, the binding signal is 10.4 ln median PBM intensity, better of two orientations.

Regarding B35, the binding signal is 10.9 ln median PBM intensity, better of two orientations.

Regarding B36, the binding signal is 11.1 ln median PBM intensity, better of two orientations.

In the case of B37, the binding signal was 10.7 ln median PBM intensity, better of two orientations.

Regarding B38, the binding signal was 10.4 ln median PBM intensity, better of two orientations.

With B39, the binding signal is 11.8 ln median PBM intensity, better of two orientations.

With B40, the binding signal is 10.9 ln median PBM intensity, better of two orientations.

Regarding B41, the binding signal is 11.7 ln median PBM intensity, better of two orientations.
